Assay [1] has as its target FLAG-tagged human tumor necrosis factor α (FLAG-hTNFα) (human) (UniProt P01375). The assay is described as follows: SPR. (In general: In SPR one partner is held on a chip, and binding of the other changes the refractive index at the surface.)
Assay [2] addresses FLAG-tagged human vascular endothelial growth factor-A (FLAG-hVEGF-A) (human) (UniProt P15692). The assay can be described thus: SPR.

Chain of FLAG-tagged human vascular endothelial growth factor-A (FLAG-hVEGF-A) (human) (P15692 other isoform, or with tags, fused parts or gaps): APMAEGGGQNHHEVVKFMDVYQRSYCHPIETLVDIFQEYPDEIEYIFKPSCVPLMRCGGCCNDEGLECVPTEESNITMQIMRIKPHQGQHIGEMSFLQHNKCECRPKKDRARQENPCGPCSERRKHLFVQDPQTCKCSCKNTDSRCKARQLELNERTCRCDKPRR
Chain of FLAG-tagged human tumor necrosis factor α (FLAG-hTNFα) (human) (P01375 whole entry): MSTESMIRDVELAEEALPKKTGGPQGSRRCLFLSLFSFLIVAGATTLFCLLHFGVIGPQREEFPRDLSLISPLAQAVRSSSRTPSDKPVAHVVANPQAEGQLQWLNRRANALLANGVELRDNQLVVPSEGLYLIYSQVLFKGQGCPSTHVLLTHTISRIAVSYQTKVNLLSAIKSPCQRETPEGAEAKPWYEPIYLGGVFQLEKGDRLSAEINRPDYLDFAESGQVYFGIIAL

For orientation: Kd means the concentration at which binding is half-saturated. Usually koff stands for a measure of how fast the partners let go of each other. In assay [1], adalimumab yielded a Kd of 0.41 nM and a koff of 0.00036 s⁻¹.
In assay [2], bevacizumab came in with a Kd of 0.341 nM and a koff of 0.000105 s⁻¹.

These data come from publication PMC8166883.
